Experimental data from patent publication US10005846 (LIFEARC, dated 2018).
One block for each binder: values may come before it.

Assays:
TG13 = target: T1, TG13; test: ELISA, purified IgG at 0.1 ug/ml, plates coated with 100 ng of each TG [panel B]
T1 construct: also called Factor XIIIa
T1 chain: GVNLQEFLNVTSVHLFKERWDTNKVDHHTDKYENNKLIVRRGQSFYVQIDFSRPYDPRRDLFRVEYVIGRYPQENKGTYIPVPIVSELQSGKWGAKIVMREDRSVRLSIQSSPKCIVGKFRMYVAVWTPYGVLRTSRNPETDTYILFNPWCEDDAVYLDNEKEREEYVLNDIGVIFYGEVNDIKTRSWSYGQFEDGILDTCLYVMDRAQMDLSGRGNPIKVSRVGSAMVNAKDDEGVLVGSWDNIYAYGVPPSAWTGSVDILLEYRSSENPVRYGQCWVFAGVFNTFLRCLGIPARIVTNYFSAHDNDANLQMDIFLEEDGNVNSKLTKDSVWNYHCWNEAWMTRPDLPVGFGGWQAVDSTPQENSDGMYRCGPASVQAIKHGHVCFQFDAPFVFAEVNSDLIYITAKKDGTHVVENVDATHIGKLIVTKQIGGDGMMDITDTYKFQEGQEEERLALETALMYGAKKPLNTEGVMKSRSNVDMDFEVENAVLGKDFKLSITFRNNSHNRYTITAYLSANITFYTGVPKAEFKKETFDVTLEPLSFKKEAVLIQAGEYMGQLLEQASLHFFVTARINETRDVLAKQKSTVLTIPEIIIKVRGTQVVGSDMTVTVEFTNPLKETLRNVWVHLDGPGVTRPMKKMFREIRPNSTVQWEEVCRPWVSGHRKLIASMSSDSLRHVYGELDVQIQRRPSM
Procedure: Conditioned medium or purified IgG were tested for reactivity to transglutaminase family members. The ability of each to bind to each transglutaminase (TG1, TG2, TG3, TG5, TG7 and Factor XIIIa; all Zedira) was determined using a plate binding assay. Microtiter plates (Costar, Cambridge, UK) were coated with recombinant TG (Zedira, Darmstadt, Germany) in 50 μl of 0.1 M bicarbonate/carbonate buffer (pH 9.6) overnight at 4° C. Plates were blocked for 2 h at 37° C. with 200 μl PBS containing 3% w/v BSA. Plates were washed three times with PBS containing 0.05% Tween 20 (washing buffer) and 100 μl of diluted conditioned medium (dilution 1:5 to 1:20) or purified anti-TG2 catalytic core mAbs was added. Plates were incubated for a further 1 h at room temperature. The washing step was repeated and anti-mouse gamma chain-horseradish peroxidase (1:5000) in PBS containing 0.05% Tween 20 (v:v) and 1% BSA (w:v) (Sigma, Poole UK) was added for 1 h. […] The reaction was stopped by adding 25 μl of 0.1 M H_2SO_4 and the absorbance at 450 nm was determined.

cynomolgus monkey TG2 = target: T2, cynomolgus monkey TG2 (cynomolgus monkey, UniProt A0A2K5VXI8 1-687); test: ELISA on immobilised cynomolgus monkey TG2; r2 0.9986; EC50 95% confidence range 0.6682 to 0.8162 [panel A]
T2 construct: Bought recombinant protein; also called cynomogulus monkey TG2; cyano TG2
T2 sequence: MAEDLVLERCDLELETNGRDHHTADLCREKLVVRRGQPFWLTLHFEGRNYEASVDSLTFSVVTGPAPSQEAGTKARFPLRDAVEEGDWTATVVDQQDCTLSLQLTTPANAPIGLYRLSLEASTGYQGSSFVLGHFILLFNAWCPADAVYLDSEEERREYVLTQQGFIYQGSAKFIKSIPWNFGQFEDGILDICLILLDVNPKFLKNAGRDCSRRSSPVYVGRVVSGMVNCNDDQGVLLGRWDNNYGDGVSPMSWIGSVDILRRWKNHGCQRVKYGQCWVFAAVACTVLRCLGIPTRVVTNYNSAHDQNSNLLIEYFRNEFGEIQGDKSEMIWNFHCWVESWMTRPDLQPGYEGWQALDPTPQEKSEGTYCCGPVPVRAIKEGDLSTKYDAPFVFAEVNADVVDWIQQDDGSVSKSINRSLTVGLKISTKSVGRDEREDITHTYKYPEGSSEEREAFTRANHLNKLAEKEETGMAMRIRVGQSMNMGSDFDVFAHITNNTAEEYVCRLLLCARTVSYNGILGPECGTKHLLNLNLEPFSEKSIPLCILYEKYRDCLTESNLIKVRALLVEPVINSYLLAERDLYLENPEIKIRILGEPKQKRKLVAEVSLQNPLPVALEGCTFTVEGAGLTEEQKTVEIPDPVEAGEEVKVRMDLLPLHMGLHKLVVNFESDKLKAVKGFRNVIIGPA
Procedure: Antibody binding to human and cynomolgus monkey TG2 was determined in an ELISA assay. Clear polystyrene "Maxisorp" 96-well plates (Nunc) were coated with 50 ng purified human or cynomogulus monkey TG2 in 50 µl 0.05 M carbonate-bicarbonate buffer pH 9.6 at 4° C. overnight. Control wells were coated with 50 µl 100 µg/ml bovine serum albumin (BSA). Plates were washed 3× with 300 µl phosphate-buffered saline pH7.4 (PBS) containing 0.1% Tween 20 (PBST) and blocked with 300 µl 3% w/v Marvel skimmed milk in PBS for 1 hour at room temperature. After 3× wash with PBST, 50 µl protein-A purified chimeric or humanised anti-TG2 antibodies or human IgG1 kappa […] control antibody or CUB7402 (Abcam) were serially diluted 4-fold from a top concentration of 50 nM in PBS, and added to the plate in duplicate. […] After 3× washes with PBST, the plates were developed with 50 µl TMB substrate (Sigma) for 5 min at room temperature before stopping the reaction with 25 µl 0.5M H2SO4 and reading absorbance at 450 nm in a microtiter plate reader (BioTek EL808). Dose response curves were analysed and EC50 values and other statistical parameters determined using a 4-parameter logistical fit of the data (GraphPad Prism).

binding result (TG13): no binding (tested: 0.1 ug/ml)
B1: DC1 murine monoclonal antibody (antibody, V domains shown)
VH: EVQLVESGGGLVKPGGSLKLSCAASGFTLSTHAMSWVRQTPEKRLEWVATISSGGRSTYYPDSVKGRFTISRDNVKNTLYLQLSSLRSEDTAVYFCARLISTYWGQGTTLTVSS
VL: DITMTQSPSSIYASLGERVTITCKASQDINSYLTWFQQKPGKSPKILIYLVNRLVDGVPSRFSGSGSGQDYALTISSLEYEDMGIYYCLQYDDFPYTFGGGTKLEIK
notes: Mouse hybridoma IgG; heavy chain amplified with primer MHCG1, kappa light chain; also called mDC001

EC50 (cynomolgus monkey TG2): 0.739 nM
B2: cDH001 chimeric antibody (murine DH2 variable regions) (antibody, human IgG1, V domains shown)
VH: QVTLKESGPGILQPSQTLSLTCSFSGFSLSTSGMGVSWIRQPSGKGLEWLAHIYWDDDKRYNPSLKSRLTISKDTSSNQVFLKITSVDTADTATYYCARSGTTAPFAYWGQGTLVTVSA
VL: QIVLTQSPAIMSASPGEKVTMTCSASSSVSYMYWYQQKPGSSPRLLIYDTSNLASGVPVRFSGSGSGTSYSLTISRMEAEDAATFYCQQWSSSPLTFGAGTKLELK
